Patent publication US11858993B2, “Multi-specific antibodies with affinity for human A33 antigen and DOTA metal complex and uses thereof” (Memorial Sloan Kettering Cancer Center, priority 2015, dated 2024)
Entries after “also recorded” stand apart in the source; their conditions may differ.

What was measured:
BSA-(Y)-DOTA-Bn = experiment: Biacore T100 surface plasmon resonance, binding to BSA-(Y)-DOTA-Bn
Method: Binding affinity was measured by Biacore T100.
Biacore T100 Biosensor, CM5 sensor chip, and related reagents were purchased from GE Healthcare. Recombinant human A33 protein was purchased from Novoprotein. A BSA-(Y)-DOTA-Bn conjugate was prepared as described (Cheal et al., supra). A33 and DOTA antigens were immobilized using the Amino Coupling kit (GE Healthcare). Purified bispecific antibodies and control antibodies were analyzed, and data were fit to a bivalent analyte model using the Biacore T100 evaluation software as described (Cheal et al., supra).

SW1222 tumor = experiment: PRIT optimization biodistribution (huA33-C825 dose, clearing agent dose), 24 h p.i. of ^177Lu-DOTA-Bn; settings: for tumor-to-organ ratio, kidney: 24 h p.i.
Method: Next, additional biodistribution experiments were performed to optimize the CA dose during PRIT with 0.25 mg (1.19 nmol) as the huA33-C825 dose. Groups of tumor-bearing mice (n=3 to 4 per group) with were injected with huA33-C825, followed 24 h later with either: saline (i.e. vehicle), 2.4% (w/w, with respect to 0.25 mg huA33-C825 dose), 5% (w/w), 10% (w/w), or 25% (w/w) CA doses (0-62.5 μg/mouse). After an additional 4 h, mice were injected with 5.6 MBq of ^177Lu-DOTA-Bn, and sacrificed 24 h later for biodistribution analysis.
Next, ^177Lu-DOTA-Bn dose titration studies were performed using the optimized PRIT doses for huA33-C825 and CA. For ^177Lu-DOTA-Bn dose titration studies, the ^177Lu-activity biodistribution data for tumor and critical select tissues (blood, liver, spleen, and kidneys) was compared between ^177Lu-DOTA-Bn dose groups as both % ID/g and absolute uptake (kBq/g; see FIGS. 4A, 4B). Finally, a single-time point biodistribution experiment at 24 h p.i. of ^131I-trace labeled huA33-C825 (0.39-0.40 MBq with cold huA33-C825 added to 1.19 nmol) was performed in SW1222-tumor bearing mice to estimate the absolute antibody uptake of huA33-C825 in tumor (as pmol/g) during PRIT.
All animal experiments were approved by the Institutional Animal Care and Use Committee of Memorial Sloan Kettering Cancer Center and institutional guidelines for the proper and humane use of animals in research were followed. Athymic nu/nu female mice (6-8 weeks old; Harlan Sprague Dawley) were allowed to acclimate in the vivarium for at least one week. […] All reagents were given intravenously (i.v.) via the lateral tail vein. […] In addition, huA33-C825 was trace radiolabeled with I-131 to estimate tumor uptake during PRIT.

[1] = tested on: kidney, bone marrow, liver, and spleen; experiment: Toxicity: weight, appearance and anatomic pathology after PRIT; format: in vivo; settings: PRIT-treated SW1222 mice, dual-cycle; out to 140 days where stated
Method: For dual-cycle PRIT given at 10 and 17 days post tumor inoculation, there is marked response at all dose levels with complete responses observed in a dose dependent manner. […] Toxicity was determined by monitoring weight and overall appearance at least three times per week, as well as histopathologic assessment of liver, kidney, spleen and bone marrow by MSKCC Lab of Comparative Pathology.
For 3/3 mice, the kidney, bone marrow, and liver were normal.

[2] = tested on: A33-positive SW1222 tumor; experiment: Estimation of absorbed doses and therapeutic index for PRIT; format: in vivo, mice; settings: PRIT 0.25 mg huA33-C825, 62.5 μg CA, ^177Lu-DOTA-Bn; 2-120 h p.i. data
Text: Exemplary estimates of absorbed doses for tumor and select normal tissue in female athymic mice carrying s.c. A33 positive-colorectal cancer tumors for PRIT including the optimum huA33-C825 and dextran-clearing agent doses are set forth in Table 6.

[3] = Stability by SE-HPLC and Biacore after freeze and thaw cycles; format: physicochemical; settings: after multiple freeze and thaw cycles
[4] = tested on: A33-positive SW1222 tumor; experiment: Biodistribution of ^177Lu-activity 2-120 h p.i. following PRIT; settings: 2.0 MBq ^177Lu-DOTA-Bn
Method: Briefly, ^177Lu-activity in tumor and various normal tissues determined using a biodistribution assay following PRIT with optimum A33-C825 (0.25 mg/mouse) and dextran-clearing agent doses (25% (w/w), 62.5 μg) and 2.0 MBq (˜10 pmol) of ^177Lu-DOTA-Bn. Groups of SW1222 tumor-bearing mice (n=4 to 5) were given 250 μg of huA33-C825, followed 24 h later with 25% (w/w) (62.5 μg) dextran-clearing agent, and after an additional 4 h, 2.0 MBq (˜10 pmol) of 177Lu-DOTA-Bn. […] was sacrificed at 2, 24, and 120 h p.i. of ^177Lu-DOTA-Bn for biodistribution analysis.
All animal experiments were approved by the Institutional Animal Care and Use Committee of Memorial Sloan Kettering Cancer Center and institutional guidelines for the proper and humane use of animals in research were followed. Athymic nu/nu female mice (6-8 weeks old; Harlan Sprague Dawley) were allowed to acclimate in the vivarium for at least one week. […] All reagents were given intravenously (i.v.) via the lateral tail vein. […] In addition, huA33-C825 was trace radiolabeled with I-131 to estimate tumor uptake during PRIT. […] (Lindmo, T. et al., 1990, J. Immunol. Meth. 126(2):183-189). For PRIT with non-specific IgG-C825, an equivalent mg dose of a GD2-targeted bispecific antibody (hu3F8-C825) was used in place of huA33-C825. For ex vivo biodistribution analysis, mice were euthanized by CO2(g) asphyxiation, and tumor and selected organs were harvested, rinsed with water and allowed to air-dry, weighed and radioassayed by gamma scintillation counting (Perkin Elmer Wallac Wizard 3″). Count rates were background and decay corrected, converted to activities using a system calibration factor, normalized to the administered activity, and expressed as percent injected dose per gram (% ID/g). Differences in ^177Lu-activity concentration in tumor and various tissues were analyzed by Student's unpaired t test when appropriate. […]

[5] = Biacore T100, bivalent analyte model

## huA33-C825: bispecific antibody: humanized A33 IgG1 with murine C825 anti-DOTA-Bn scFv linked to the light chain C-terminus
BSA-(Y)-DOTA-Bn; [5]
  koff: 0.00022 s⁻¹
  kon: 19000 M⁻¹ s⁻¹
BSA-(Y)-DOTA-Bn; FIG. 2B
  Kd: 11.6 nM
SW1222 tumor; 65 μg CA dose level (25% (w/w))
  tumor-to-organ ratio, kidney: 18.4±13.4
SW1222 tumor; mouse, in vivo
  reduction in ^177Lu-DOTA-Bn tumor uptake compared with PRIT with saline: ~50%
  tumor-to-organ ratio, blood: 2.2±0.4
  tumor-to-organ ratio, muscle: 23.2±3.8
SW1222 tumor; saline (no CA)
  tumor-to-organ ratio, kidney: 4.9±0.6
[1]
  toxicity (clinical, histologic): no clinical or histologic evidence of radiation induced toxicities; also recorded: no toxicity was observed; also recorded: no detectable toxicity
[2]
  estimated absorbed dose, Blood: 0.9 cGy/MBq
  estimated absorbed dose, Bone: 0.6 cGy/MBq
  estimated absorbed dose, Heart: 1.4 cGy/MBq
  estimated absorbed dose, Kidneys: 5.3 cGy/MBq
  estimated absorbed dose, Large Intestine: 0.8 cGy/MBq
  estimated absorbed dose, Liver: 6.3 cGy/MBq
  estimated absorbed dose, Lung: 1.8 cGy/MBq
  estimated absorbed dose, Muscle: 0.3 cGy/MBq
  estimated absorbed dose, Small Intestine: 0.5 cGy/MBq
  estimated absorbed dose, Spleen: 6.6 cGy/MBq
  estimated absorbed dose, Stomach: 0.6 cGy/MBq
  estimated absorbed dose, Tumor: 65.8 cGy/MBq
[3]
  stability by SE-HPLC and Biacore: remained stable
[4]; 2 hr p.i. (n = 5)
  Tumor-to-tissue ratio, Kidneys: 8.1 ± 1.7
[4]; 24 hr p.i. (n = 4)
  Tumor-to-tissue ratio, Kidneys: 18.3 ± 13.4
[4]; 120 hr p.i. (n = 5)
  Tumor-to-tissue ratio, Kidneys: 14.8 ± 4.9
